Square brackets hold non-standard residues; d marks the D form. Ends that are not written are not given here. fluorescein = fluorescein-6-aminohexanoyl (F-Ahx); pS = N[C@@H](COP(=O)(O)O)C(=O)O; Ahx = NCCCCCC(=O)O
Legend:
Details in all cases: both partners purified
Smad2-Y426A = target: T1, Smad2-Y426A (UniProt Q62432 1-467, Y426A); experiment: fluorescence polarisation; fluorescence anisotropy; F-Ahx-labelled peptide fixed (2.5 μM in the methods, 2.5 nM in the legend), Smad2 WT or mutant varied (0-250 μM in the methods, 0-150 μM in the legend); 20 mM Tris pH 7.9, 160 mM NaCl; 10 min incubation
T1 construct: Smad2, full length, point mutant Y426A; source: E. coli BL21 RIL codon plus, purified (Ni-NTA)
T1 sequence (Q62432 whole entry Y426A): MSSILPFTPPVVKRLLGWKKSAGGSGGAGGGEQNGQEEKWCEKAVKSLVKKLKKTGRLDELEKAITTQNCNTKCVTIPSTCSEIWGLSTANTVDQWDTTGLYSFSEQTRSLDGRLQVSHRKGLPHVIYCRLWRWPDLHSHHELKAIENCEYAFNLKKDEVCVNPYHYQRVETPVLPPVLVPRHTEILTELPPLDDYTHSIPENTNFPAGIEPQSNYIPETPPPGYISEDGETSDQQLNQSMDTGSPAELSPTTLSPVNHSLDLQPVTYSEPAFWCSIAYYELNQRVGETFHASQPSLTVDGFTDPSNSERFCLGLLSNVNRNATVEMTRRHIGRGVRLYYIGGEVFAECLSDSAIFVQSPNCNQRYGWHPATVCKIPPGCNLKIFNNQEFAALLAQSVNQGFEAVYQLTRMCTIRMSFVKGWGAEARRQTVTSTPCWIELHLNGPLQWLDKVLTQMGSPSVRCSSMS

Smad2-K420A = target: T2, Smad2-K420A (UniProt Q62432 1-467, K420A); experiment: as above
T2 construct: Smad2, full length, point mutant K420A; source: E. coli BL21 RIL codon plus, purified (Ni-NTA)
T2 sequence (Q62432 whole entry K420A): as the sequence (Q62432 whole entry Y426A) above, with K420A, A426Y counted along it

Smad2-R427A/R428A = target: T3, Smad2-R427A/R428A (UniProt Q62432 1-467, R427A | R428A); experiment: as above
T3 construct: Smad2, full length, double mutant R427A/R428A; also called RR/AA; source: E. coli BL21 RIL codon plus, purified (Ni-NTA)
T3 sequence (Q62432 whole entry R427A/R428A): as the sequence (Q62432 whole entry Y426A) above, with A426Y, R427A, R428A counted along it

Smad2-E425K = target: T4, Smad2-E425K (UniProt Q62432 1-467, E425K); experiment: as above
T4 construct: Smad2, full length, charge-reversal point mutant E425K; source: E. coli BL21 RIL codon plus, purified (Ni-NTA)
T4 sequence (Q62432 whole entry E425K): as the sequence (Q62432 whole entry Y426A) above, with E425K, A426Y counted along it

[1] = target: T5, Smad2 wild type, full length (UniProt Q62432 1-467); experiment: as above
T5 construct: Smad2, full length (FL), bacterially expressed from pET-30a; also called Smad2 WT; Smad2-FL; source: E. coli BL21 RIL codon plus, purified (Ni-NTA)
T5 sequence (Q62432 whole entry): as the sequence (Q62432 whole entry Y426A) above, with A426Y counted along it

Smad2-W422A = target: T6, Smad2-W422A (UniProt Q62432 1-467, W422A); experiment: as above
T6 construct: Smad2, full length, point mutant W422A; source: E. coli BL21 RIL codon plus, purified (Ni-NTA)
T6 sequence (Q62432 whole entry W422A): as the sequence (Q62432 whole entry Y426A) above, with W422A, A426Y counted along it

[2] = target: T5, Smad2 wild type, full length; experiment: fluorescence polarisation; fluorescence anisotropy as a1, in the presence of 50 μM POPC/POPS/PI(4,5)P2 (77:20:3) LUVs
[3] = target: T5, Smad2 wild type, full length; experiment: fluorescence polarisation; fluorescence anisotropy; F-Ahx-labelled peptide fixed (2.5 μM in the methods, 2.5 nM in the legend), Smad2 WT or mutant varied (0-250 μM in the methods, 0-150 μM in the legend); 20 mM Tris pH 7.9, 160 mM NaCl; 10 min incubation; remark: listed apart in the source

Binder | Kd (Smad2-Y426A) [µM] | Kd (Smad2-K420A) [µM] | Kd (Smad2-R427A/R428A) [µM] | Kd (Smad2-E425K) [µM] | Kd [1] [µM] | Kd (Smad2-W422A) [µM] | Kd [2] [nM] | Kd [3] [nM]
{fluorescein-Ahx}-YDMTT[pS]G[pS]G[pS]GLPLL (type I TGF-β receptor (TβRI), GS region, triply phosphorylated; also called GS peptide; TβRI peptide; source: synthetic peptide; bought: AlanScientific) [TβRI GS region peptide (F-Ahx-YDMTTpSGpSGpSGLPLL)] | 20 | 200 | 44 | 8 | 20 | 21 | 60 ± 7 | 20 ± 6
{fluorescein-Ahx}-ADNKDNGT (type I TGF-β receptor (TβRI), L45 loop; also called L45 peptide; L45 loop peptide; source: synthetic peptide; bought: AlanScientific) [TβRI L45 loop region peptide (F-Ahx-ADNKDNGT)] | 70 | 100 | 75 | 55 | 66 | 67 |  | 

Source: paper PMC8567202, “Phosphoinositide-binding activity of Smad2 is essential for its function in TGF-β signaling” (The Journal of Biological Chemistry, 2021)
